The source of these data is publication PMC11191771.

Series [1] has as its target PRC2.2 EZH2 del353-362 (human, UniProt Q15910-2;Q15022;O75530;Q09028;Q6ZN18;Q92833 …, internal_change). The series is described as follows: EMSA; no obvious reduction vs WT; EMSA: 50 mM Tris-HCl pH 7.5 (25 C), 100 mM KCl, 2.5 mM MgCl2, 0.1 mM ZnCl2, 2 mM 2-mercaptoethanol?; FP: 50 mM Tris pH 7.5, 10 or 25 mM KCl, 2.5 mM MgCl2, 0.1 mM ZnCl2, 0.1 mg/mL BSA?, room temperature, 5 nM RNA or DNA. To be noted: protein: recombinant; tags: as P1; copies: 1;1;1;1;1;1; label: 5' 32P (EMSA); single G-quadruplex.

The target in series [2] is PRC2.2 EZH2 R566A K568A Q575A (human, UniProt Q15910-2;Q15022;O75530;Q09028;Q6ZN18;Q92833 …, R566A;K568A;Q575A). The series is described as follows: EMSA; binding not affected vs WT; EMSA: 50 mM Tris-HCl pH 7.5 (25 C), 100 mM KCl, 2.5 mM MgCl2, 0.1 mM ZnCl2, 2 mM 2-mercaptoethanol?; FP: 50 mM Tris pH 7.5, 10 or 25 mM KCl, 2.5 mM MgCl2, 0.1 mM ZnCl2, 0.1 mg/mL BSA?, room temperature, 5 nM RNA or DNA. To be noted: protein: recombinant; tags: as P1; copies: 1;1;1;1;1;1; label: 5' 32P (EMSA); single G-quadruplex.

Series [3] addresses PRC2.2 six-subunit complex WT (EZH2, SUZ12, EED, RBAP48, AEBP2, JARID2 119-450) (human, UniProt Q15910-2;Q15022;O75530;Q09028;Q6ZN18;Q92833 …). The series can be described thus: EMSA; 100 mM KCl; EMSA: 50 mM Tris-HCl pH 7.5 (25 C), 100 mM KCl, 2.5 mM MgCl2, 0.1 mM ZnCl2, 2 mM 2-mercaptoethanol?; FP: 50 mM Tris pH 7.5, 10 or 25 mM KCl, 2.5 mM MgCl2, 0.1 mM ZnCl2, 0.1 mg/mL BSA?, room temperature, 5 nM RNA or DNA. To be noted: protein: recombinant, tags: His-EZH2, Strep-GFP-AEBP2, Strep-GFP-JARID2, TEV protease treated, copies: 1;1;1;1;1;1, label: 5' 32P (EMSA). In general terms: A gel shift assay detects complexes by their altered migration in electrophoresis.

Series [4] concerns the target T1, PRC2.2 EZH2 R566Y K568Y Q575Y (3Y) (human, UniProt Q15910-2;Q15022;O75530;Q09028;Q6ZN18;Q92833 …, R566Y;K568Y;Q575Y). The series is described as follows: EMSA; higher affinity than WT; EMSA: 50 mM Tris-HCl pH 7.5 (25 C), 100 mM KCl, 2.5 mM MgCl2, 0.1 mM ZnCl2, 2 mM 2-mercaptoethanol?; FP: 50 mM Tris pH 7.5, 10 or 25 mM KCl, 2.5 mM MgCl2, 0.1 mM ZnCl2, 0.1 mg/mL BSA?, room temperature, 5 nM RNA or DNA. Conditions: protein: recombinant; tags: as P1; copies: 1;1;1;1;1;1; label: 5' 32P (EMSA); single G-quadruplex.

In series [5] the target is T1, PRC2.2 EZH2 R566Y K568Y Q575Y (3Y). The series can be described thus: FP; higher affinity than WT; Kd only in figure; EMSA: 50 mM Tris-HCl pH 7.5 (25 C), 100 mM KCl, 2.5 mM MgCl2, 0.1 mM ZnCl2, 2 mM 2-mercaptoethanol?; FP: 50 mM Tris pH 7.5, 10 or 25 mM KCl, 2.5 mM MgCl2, 0.1 mM ZnCl2, 0.1 mg/mL BSA?, room temperature, 5 nM RNA or DNA. Conditions: protein: recombinant; tags: as P1; copies: 1;1;1;1;1;1; label: fluorescent label; single G-quadruplex.

With CAAAAACAAAAACAAAAACAAAAACAAAAAGGGAAGGGAAGGGAAGGGAA (structured_RNA) [1G4 RNA, no biotin], the binding result in series [1], in series [2] and in series [4] was “binds” in each case. In series [3] (single G-quadruplex), the Kd (commonly the equilibrium constant for the complex coming apart) amounted to 120 nM.
On to CAAAAACAAAAACAAAAACAAAAACAAAAAGGGAAGGGAAGGGAAGGGAA (structured_RNA) [1G4 RNA (FP)], for which the binding result in series [5] was “binds”.

B1: 2G4 RNA (structured_RNA)
RNA: CAAAAACAAAAACAAAAACAAAAACAAAAAGGGAAGGGAAGGGAAGGGAAACAACAACAACAACAGGGAAGGGAAGGGAAGGGAA
On to B1, for which the Kd in series [3] (two G-quadruplexes) amounted to 32 nM.
